Laboratory results from patent US20230212306A1 (Daiichi Sankyo, published 2023).
Residue numbers refer to the chain shown, from its start.

Experiments:
[1] = target: T1, human TLR7 (variant 1)-Flag, expressed in HEK293 cells (human, UniProt Q9NYK1 27-1049); assay: flow cytometry on fixed and permeabilised HEK293 cells expressing human TLR7 (variant 1)-Flag
T1 construct: Transient expression from pcDNA3.1 in Lenti-X HEK293T cells; cells fixed and permeabilised before staining; not shown: Flag tag
T1 sequence: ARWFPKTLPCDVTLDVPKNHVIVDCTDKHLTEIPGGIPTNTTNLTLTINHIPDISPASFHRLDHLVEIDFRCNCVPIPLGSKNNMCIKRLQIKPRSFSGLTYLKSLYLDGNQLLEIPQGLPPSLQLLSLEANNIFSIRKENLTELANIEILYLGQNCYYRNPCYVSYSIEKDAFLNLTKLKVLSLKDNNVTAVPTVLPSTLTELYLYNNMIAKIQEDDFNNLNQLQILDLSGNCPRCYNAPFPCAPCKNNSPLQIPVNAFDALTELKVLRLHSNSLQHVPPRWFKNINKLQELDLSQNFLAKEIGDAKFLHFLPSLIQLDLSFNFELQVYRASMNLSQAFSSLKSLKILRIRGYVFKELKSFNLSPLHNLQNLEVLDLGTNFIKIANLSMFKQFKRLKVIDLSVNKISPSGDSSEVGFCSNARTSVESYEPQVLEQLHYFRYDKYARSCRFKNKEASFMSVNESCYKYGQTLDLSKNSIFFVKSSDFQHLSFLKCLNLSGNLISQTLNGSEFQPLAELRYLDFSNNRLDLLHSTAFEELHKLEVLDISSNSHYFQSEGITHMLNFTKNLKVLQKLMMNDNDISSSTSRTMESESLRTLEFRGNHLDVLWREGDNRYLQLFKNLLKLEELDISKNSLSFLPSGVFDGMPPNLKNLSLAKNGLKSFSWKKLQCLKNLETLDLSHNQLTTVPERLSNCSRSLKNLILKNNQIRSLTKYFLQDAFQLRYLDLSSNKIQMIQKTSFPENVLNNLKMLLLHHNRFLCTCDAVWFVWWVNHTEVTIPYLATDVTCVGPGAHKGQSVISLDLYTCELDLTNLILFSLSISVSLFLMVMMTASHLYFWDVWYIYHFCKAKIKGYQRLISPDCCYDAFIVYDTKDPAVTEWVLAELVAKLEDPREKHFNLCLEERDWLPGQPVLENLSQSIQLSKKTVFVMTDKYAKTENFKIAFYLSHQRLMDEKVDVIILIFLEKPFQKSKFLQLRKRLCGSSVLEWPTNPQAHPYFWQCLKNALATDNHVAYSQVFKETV
Source text: (§1) The HEK293 cells expressing human TLR7 (variant 1)-Flag prepared in 8)-1, the HEK293 cells expressing human TLR7 (variant 2)-Flag prepared in 8)-2, the HEK293 cells expressing monkey TLR7-Flag prepared in 8)-3, the HEK293 cells expressing mouse TLR7-Flag prepared in 8)-4, and the HEK293 cells expressing rat TLR7-Flag prepared in 8)-5 were immobilized/subjected to membrane permeation with a Fixation and Permeabilization Solution (Becton, Dickinson and Company) and thereafter stained using huAT01_H3L2_IgG1LALA, which is one of the humanized anti-human TLR7 antibodies, and ALEXA FLUOR® 647 AffiniPure Goat anti-human IgG+IgM (H+L) (Jackson ImmunoResearch Inc.), which is the secondary antibody.
(§2) The binding of the humanized anti-human TLR7 antibody to human TLR7 was detected based on flow cytometry (Miltenyi Biotec K.K.), and the data was analyzed using software (Flowjo) which analyzes the data of flow cytometry.

[2] = target: T2, human TLR7 (variant 2)-Flag, expressed in HEK293 cells (human, UniProt Q9NYK1 27-1049); assay: flow cytometry on fixed and permeabilised HEK293 cells expressing human TLR7 (variant 2)-Flag
T2 construct: Transient expression from pcDNA3.1 in Lenti-X HEK293T cells; cells fixed and permeabilised before staining; not shown: Flag tag
T2 sequence: T1 sequence with L699H, L712P
Source text: as §1, §2

binding result [1]: binds
binding result [2]: binds
B1: huAT01_H3L2_IgG1LALA antibody (antibody, V domains shown)
VH: QVQLVQSGAEVKKPGASVKVSCKASGYTFTNNWLHWVRQAPGQGLEWMGDIYPSNGRTNYAQKFQGRVTLTVDKSTSTAYMELSSLRSEDTAVYFCARERGYFDYWGQGTLVTVSS
VL: DIQMTQSPSSLSASVGDRVTITCKASQDINKYIAWYQQKPGKAPKLLIHYTSTLQPGIPSRFSGSGSGRDYTLTISSLQPEDFATYYCLQYDYLLTFGQGTKVEIKR
notes: Humanized AT01; heavy huAT01_H3_IgG1LALA, light huAT01_L2
